Laboratory results reported in US20020197702A1.
* marks the point of attachment. AMC = Cc1cc(=O)oc2cc(N*)ccc12

Target: membrane-derived caspases
Experiment: cell-based or functional assay

Km for hydrolysis of DEVD-amc: 10 µM
Binder: Ac-DEVD-{AMC} [DEVD-amc (Acetyl-Asp-Glu-Val-Asp-aminomethylcoumarin)]
